We go through three molecules from PMC6134095 (2018).

Assay [1] has as its target T1, FtsQ (58–276), periplasmic domain of E. coli FtsQ (Escherichia coli strain K-12, UniProt P06136 58-276). In words: SPR. For orientation: Surface plasmon resonance follows binding to a sensor surface in real time, without labels.
For assay [2], the target named is T1, FtsQ (58–276), periplasmic domain of E. …. As to the kind of experiment: SPR; major phase.
Assay [3] shares this target. In words: SPR; minor phase.
For assay [4] the target is unchanged. As to the kind of experiment: SPR; minor phase. The source holds these as a separate data set.

T1 sequence (P06136 58-276): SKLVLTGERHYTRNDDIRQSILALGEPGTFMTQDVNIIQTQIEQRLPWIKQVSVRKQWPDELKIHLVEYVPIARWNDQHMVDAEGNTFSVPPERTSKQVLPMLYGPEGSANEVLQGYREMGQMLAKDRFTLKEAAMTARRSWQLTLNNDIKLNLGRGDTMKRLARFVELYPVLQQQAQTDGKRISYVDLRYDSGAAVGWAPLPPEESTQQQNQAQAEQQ

B1: FtsN (57–319), periplasmic domain of E. coli FtsN (domain or fragment)
chain: HKKEESETLQSQKVTGNGLPPKPEERWRYIKELESRQPGVRAPTEPSAGGEVKTPEQLTPEQRQLLEQMQADMRQQPTQLVEVPWNEQTPEQRQQTLQRQRQAQQLAEQQRLAQQSRTTEQSWQQQTRTSQAAPVQAQPRQSKPASSQQPYQDLLQTPAHTTAQSKPQQAAPVARAADAPKPTAEKKDERRWMVQCGSFRGAEQAETVRAQLAFEGFDSKITTNNGWNRVVIGPVKGKENADSTLNRLKMAGHTNCIRLAAGG
The koff is the first-order rate constant of dissociation. Regarding B1, the koff in assay [1] worked out at 0.076 s⁻¹.

B2: FtsB (22–103), periplasmic domain of E. coli FtsB (domain or fragment)
chain: GKNGIHDYTRVNDDVAAQQATNAKLKARNDQLFAEIDDLNGGQEALEERARNELSMTRPGETFYRLVPDASKRAQSAGQNNR
One may read the Kd as the equilibrium constant for the complex coming apart. Higher therefore signals a looser complex. Regarding B2, the dissociation rate constant (koff) in assay [2] was determined as 0.00021 s⁻¹; in assay [4], 0.031 s⁻¹. For the same molecule, the Kd in assay [3] came out at 11 µM.

B3: FtsN (58–320) plus FtsB (22–103), bound together (other)
chain 1: B2 chain
chain 2: B1 chain
For the molecule B3, the off-rate constant (koff) in assay [2] worked out at 8.3e-05 s⁻¹; in assay [4], 0.03 s⁻¹. In assay [3], this molecule had a Kd of 5.6 µM.
